B1: HDV Ribozyme (parent)
chain: GGCCGGCAUGGUCCCAGCCUCCUCGCUGGCGCCGGCUGGGCAACAUUCCGAGGGGACCGUCCCCUCGGUAAUGGCGAAUGGGACCCA

Variants of: B1
Assay: self-cleavage, relative activity (ratio to wild type); higher = more cleavage; co-transcriptional

Row | Variant | self-cleavage
1 | GGCAGGCAUGGUCCCAGCCUCCUCGCUGGCGCCGGCUGGGCAACAUUCCGAGGGGACCGUCCCCUCGGUAAUGGCGAAAGGGACCCA | 0.0739
2 | GGCGGGCGUGGUCCCAGCCUCCUCGCUGGCGCCGGCUGGGCAACAUUCCGAGGGGACCGUCCCCUCGGUAAUGGCGAAUGGGACCCA | 0.346
3 | GGCAGGCAUGGUCCCAGCCUCCUCGCUGGCGCCGGCUGGGCAACAUUCCUAGGGGACCGUCCCCUCGGUAAUGGCGAAUGGGACCCA | 0.372
4 | GGCAGGCAUGGUCCCAGCCUCCUCGCUGGCGCCGGCUGGGCAACAUUCCGAGGGGACCGUCCCCUCGGGAAUGGCGAAUGGGACCCA | 0.285
5 | GGCAGGCAUGGUCCCAGCCUCCUCGCUGGCGCCGGCUGAGCAACAUUCCGAGGGGACCGUCCCCUCGGUAAUGGCGAAUGGGACCCA | 0.119
6 | GGCAGGCAUGGUCCCAGCCUCCUCGCUGGCGCCGGCUGCGCAACAUUCCGAGGGGACCGUCCCCUCGGUAAUGGCGAAUGGGACCCA | 0
7 | GGCAGGCAUGGUCCCAGCCUCCUCGCUGGCGCCGGCUAGGCAACAUUCCGAGGGGACCGUCCCCUCGGUAAUGGCGAAUGGGACCCA | 0.133
8 | GGCAGGCAUGGUCCCAGCCUCCUCGCUGGCGCCGGCUGGGCAACAUUCCGAGGGGACCGUCCCUUCGGUAAUGGCGAAUGGGACCCA | 0.277
9 | GGCAGGCACGGUCCCAGCCUCCUCGCUGGCGCCGGCUGGGCAACAUUCCGAGGGGACCGUCCCCUCGGUAAUGGCGAAUGGGACCCA | 0.268
10 | GGCAAGCAUGGUCCCAGCCUCCUCGCUGGCGCCGGCUGGGCAACAUUCCGAGGGGACCGUCCCCUCGGUAAUGGCGAAUGGGACCCA | 0.13
11 | GGCAGGCAUGGUCCCAGCCUCCUCGCUGGCGCCGGCUGGUCAACAUUCCGAGGGGACCGUCCCCUCGGUAAUGGCGAAUGGGACCCA | 0.199
12 | GGCAGGCAUGGUCCCAGCCUCCUCGCUGGCGCCGGCUGGACAACAUUCCGAGGGGACCGUCCCCUCGGUAAUGGCGAAUGGGACCCA | 0.214
13 | GGCAGGCAUGGUCCCAGCCUCCUCGCUGGCGCCGGCUGGGCAACAUUCCGAGGGGACCGUCCCCUCGGUAAUGGGGAAUGGGACCCA | 0.0396
14 | GGCAGGCAUGGUCCCAGCCUCCUCGCUUGCGCCGGCUGGGCAACAUUCCGAGGGGACCGUCCCCUCGGUAAUGGCGAAUGGGACCCA | 0.0692
15 | GGCAGGCAUGGUCCCAGCCUCCUCGCUAGCGCCGGCUGGGCAACAUUCCGAGGGGACCGUCCCCUCGGUAAUGGCGAAUGGGACCCA | 0.0489
16 | GGCAGGCAUGGUCCCAGCCUCCUCGCUGGCGCCGGCUGGGCAACAUUCCGAGGGCACCGUCCCCUCGGUAAUGGCGAAUGGGACCCA | 0.31

Row | Variant | self-cleavage
17 | GGCAGGCAUGGUCCCAGCCUCCUCGCUGGCGCCGGCUGGGCAACAUUCCGAGGGAACCGUCCCCUCGGUAAUGGCGAAUGGGACCCA | 0.3
18 | GGCAGGCAUGGUCCCAGCCUCCUCGCUGGCGCCGGCUGGGCAACAUUCCGAGGGGACCGUCCCCUCGGUAAUGGCAAAUGGGACCCA | 0.208
19 | GGCAGGCAUGGUCCCAGCCUCCUCGCUGGCGCCGGCUGGGCAACAUUCCGAGGGGACCGUCCCCUCGGUAAUGGCUAAUGGGACCCA | 0.554
20 | GGCAGGCAUGGUCCCAGCCUCCUCGCUGGCGCCGGCUGGGCAACAUUCCGAGGGGACCGUCCCCUCGGUAAUGGCCAAUGGGACCCA | 0.253
21 | GGCAGGCAUGGUCCCAUCCUCCUCGCUGGCGCCGGCUGGGCAACAUUCCGAGGGGACCGUCCCCUCGGUAAUGGCGAAUGGGACCCA | 0.0292
22 | GGCAGGCAUGGUCCCAACCUCCUCGCUGGCGCCGGCUGGGCAACAUUCCGAGGGGACCGUCCCCUCGGUAAUGGCGAAUGGGACCCA | 0.0396
23 | GGCAGGCAUGGUCCCAGCCUCCUCGCUGGCUCCGGCUGGGCAACAUUCCGAGGGGACCGUCCCCUCGGUAAUGGCGAAUGGGACCCA | 0
24 | GGCAGCCAUGGUCCCAGCCUCCUCGCUGGCGCCGGCUGGGCAACAUUCCGAGGGGACCGUCCCCUCGGUAAUGGCGAAUGGGACCCA | 0.0594
25 | GGCAGGCAUGGUCCCAGCCUCCUCGCUGGCGCCGGCUGGGCAACAUUCCGAGGGGACCGUCCCCUCGGUAAUUGCGAAUGGGACCCA | 0
26 | GGCAGGCAUGGUCCCAGCCUCCUCGCUGGCGCCGGCUGGGCAACAUUCCGAGGGGACCGUCCCCUCGGUAAUGGCGAAUGGCACCCA | 0.0396
27 | GGCAGGCAUGGUCCCAGCCUCCUCGCUGGCGCCGACUGGGCAACAUUCCGAGGGGACCGUCCCCUCGGUAAUGGCGAAUGGGACCCA | 0.0733
28 | GGCAGGCAUGGUCCCAGCCUCCUCGCUGGCGCCGGCUGGGCAACAUACCGAGGGGACCGUCCCCUCGGUAAUGGCGAAUGGGACCCA | 0.156
29 | GGCAGGCAUGGUCCCAGCCUCCUCGCUGGCGCCGGCUGGGCAACAUCCCGAGGGGACCGUCCCCUCGGUAAUGGCGAAUGGGACCCA | 0.293
30 | GGCAGGCAUGGUCCCAGCCUCCUCGCUGGCGCCGGCUGGGCAACAUUCCGAGGGGACCGUCCCCCCGGUAAUGGCGAAUGGGACCCA | 0.567
31 | GGCAGGCAUGGUCCCAGCCUCCUCGCUGGCGCCGGCUGGGCAACAUUCCGAGGGGACCGUCCCCGCGGUAAUGGCGAAUGGGACCCA | 0.26
32 | GGCAGGCAUGGUCCCAGCCUCCUCGCUGGCGCCGGCGGGGCAACAUUCCGAGGGGACCGUCCCCUCGGUAAUGGCGAAUGGGACCCA | 0
